Tests used:
[1] = target: T1, human CD39 expressed on cells (human, UniProt P49961 1-510); assay: cell-based or functional assay
T1 sequence: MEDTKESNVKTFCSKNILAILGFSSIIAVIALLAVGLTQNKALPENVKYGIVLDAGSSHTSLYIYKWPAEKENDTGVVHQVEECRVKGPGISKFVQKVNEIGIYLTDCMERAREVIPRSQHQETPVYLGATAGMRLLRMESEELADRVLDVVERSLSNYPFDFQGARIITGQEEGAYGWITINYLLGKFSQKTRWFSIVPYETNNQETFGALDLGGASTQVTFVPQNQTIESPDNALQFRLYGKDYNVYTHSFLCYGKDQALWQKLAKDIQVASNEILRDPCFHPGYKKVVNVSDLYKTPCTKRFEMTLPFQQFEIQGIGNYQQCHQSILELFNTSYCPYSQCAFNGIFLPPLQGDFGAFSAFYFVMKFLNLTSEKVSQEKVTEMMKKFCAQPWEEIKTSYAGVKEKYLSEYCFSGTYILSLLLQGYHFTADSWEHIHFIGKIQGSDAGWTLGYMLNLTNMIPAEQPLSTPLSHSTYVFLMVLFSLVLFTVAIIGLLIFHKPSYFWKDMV

[2] = target: T1, human CD39 expressed on cells; assay: cell-based or functional assay; remark: listed apart in the source
[3] = target: T1, human CD39 expressed on cells; assay: cell-based or functional assay; remark: listed apart in the source
[4] = target: T1, human CD39 expressed on cells; assay: flow cytometry on JVM-13 cells (endogenous human CD39)
Method: Binding of antibody was also assessed in a cell line that expresses endogenous human CD39 (e.g. the B-prolymphocytic leukemia cell line JVM-13). Thirty-five anti-CD39 antibodies as described in Example 2 were tested for their binding to JVM-13 cells. […] Median fluorescence intensities for each primary antibody concentration were used to derive a flow EC50/Kd using the one site—specific binding with Hill slope model in Prism (GraphPad Prism Software). Results are shown as Flow EC50 in Table 8.

[5] = target: T2, recombinant human CD39 (R&D Systems) (human, UniProt P49961 38-478); assay: SPR (ProteOn XPR36); antibody captured by anti-mouse antibody, CD39 in solution, 1:1 fit
T2 construct: bought; also called CD39 antigen (R&D Systems); ENTPD1
T2 sequence: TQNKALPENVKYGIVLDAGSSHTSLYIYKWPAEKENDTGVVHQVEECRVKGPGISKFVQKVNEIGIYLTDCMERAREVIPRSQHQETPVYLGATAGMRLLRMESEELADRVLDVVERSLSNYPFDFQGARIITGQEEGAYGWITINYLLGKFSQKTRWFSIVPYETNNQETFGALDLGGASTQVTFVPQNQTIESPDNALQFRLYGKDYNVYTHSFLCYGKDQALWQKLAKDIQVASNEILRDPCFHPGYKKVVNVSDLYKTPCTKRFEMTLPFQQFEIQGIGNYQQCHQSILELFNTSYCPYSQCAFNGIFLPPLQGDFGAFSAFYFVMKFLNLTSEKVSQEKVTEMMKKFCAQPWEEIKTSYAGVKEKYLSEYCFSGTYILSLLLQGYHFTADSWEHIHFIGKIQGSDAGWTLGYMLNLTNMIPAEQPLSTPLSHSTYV
Method: (§1) Affinity measurements of four exemplary purified anti-CD39 antibodies (5-13A, 5-71A, 5-165C and 9-31A) were also carried on the ProteOn XPR36 (BioRad) using a GLM sensor chip. The running buffer contained 10 mM HEPES, 150 mM NaCl, 0.005% Tween-20 at pH 7.4. All data were collected at 25 degrees C. Anti-mouse capturing antibody was amine coupled at four densities on flow cells using standard s—NHS/EDC activation. A dilution series of […], 16.6, 5.5 and 1.85 nM CD39 antigen (R&D Systems) was tested for binding to the anti-CD39 antibody surfaces. The data were processed by subtracting the response from the inter-reference surfaces as well as the buffer blank injection. The processed response data from four density surfaces were globally fit to a simple 1:1 interaction model using Scrubber 2 (Biologic Software Pty Ltd).

[6] = target: T2, recombinant human CD39 (R&D Systems); assay: BLI (Octet QK384); antibody on anti-mouse IgG Fc sensor, recombinant human CD39 in solution
Method: Additional binding assays were conducted. Affinity measurements of thirty-five purified anti-CD39 antibodies as described in Example 2 were carried out on the OctetQK384 sytem (ForteBio). After coating anti-mouse IgG Fc sensors with a purified anti-CD39 antibody, association and dissociation of recombinant human CD39 (R&D Systems) was monitored. Affinity (KD) and kinetic constants (ka and kd) were derived using ForteBio's software.

[7] = target: T2, recombinant human CD39 (R&D Systems); assay: SPR (ProteOn XPR36); antibody captured by anti-mouse antibody, CD39 in solution, 1:1 fit; ProteOn XPR36 SPR, Table 9
Method: as §1

% Inhibition of ATPase Activity in ARH-77 cells (antibody at 1200 ng/mL) [1] [%]	% Inhibition of ATPase Activity in IM-9 cells (antibody at 1200 ng/mL) [2] [%]	% Inhibition of ATPase Activity in HUVEC cells (antibody at 900 ng/mL) [3] [%]	EC50 [4] [nM]	Kd [5] [nM]	koff [5] [s⁻¹]	kon [5] [M⁻¹ s⁻¹]	Kd [6] [nM]	koff [6] [s⁻¹]	kon [6] [M⁻¹ s⁻¹]	Kd [7] [nM]	koff [7] [s⁻¹]	kon [7] [M⁻¹ s⁻¹]	Binder
-6.2	0.8	-4.4	0.18	1.16	0.000221	191000	1.52	0.000159	105000	–	–	–	anti-CD39 monoclonal antibody 5-13A (antibody, V domains shown, purified mouse hybridoma antibody, IgG2a isotype; also called R21-5-13A; R29-5-13A) VH: QVQLQQSGPELVKPGASVRISCKASGYTFTGYYVHWVKQRPGQGLEWIGWIYPGNVNTKYNEKFKAKATLTADKSSSTGYMQLSRLTSEDSAVYFCARSPYYGTTYYYTMDYWGQGTSVTVSS VL: EIVLTQSPAFMAASPGEKVTITCSVSLIISSRNLHWYQQKSETSPKPWIYGTSNLASGVPVRFSGSGSGTSYSLTISSMEAEDAATYYCQQWSDYPLTFGSGTKLEIK
36.5	29.8	33.7	0.26	–	–	–	3.1	0.000848	273000	–	–	–	anti-CD39 monoclonal antibody 9-8B (antibody, V domains shown, purified mouse hybridoma antibody, IgG2a isotype; also called R21-9-8B; R29-9-8B) VH: QIQLVQSGPELKKPGETVKISCKASGYTFTHYGMNWVKQAPGKGLKWMGWINTYTGELTYADDFKGRFAFSLETSASTAYLQINNLKNEDTATYFCARRAYYRYDYVMDYWGQGTSVTVSS VL: DIVMTQSQKFMSTSVGDRVSVTCKASHNVGTNVAWYQQKPGQSPKALIYSASYRYSGVPGRFTGSGSGTDFTLTISNVQSEDLAEYFCHQYNNYPYTFGGGTKLEIK
-2.5	-0.1	-9.8	0.11	–	–	–	2.53	0.000196	77400	1.25	0.000109	87500	anti-CD39 monoclonal antibody 5-165C (antibody, V domains shown, purified mouse hybridoma antibody, IgG2a isotype; also called R21-5-165C; R29-5-165C) VH: EVQLVESGGDLVKPGGSLKLSCAAFGFTFSRYGMSWVRQTPDKRLEWVATITSGGIYTYYPDSVKGRFTISRDNAKNTLYLQMSSLKSEETAMYYCARHGQFGDYYGMDYWGQGTSVTVSS VL: DVVMTQTPLSLPVSLGDQASISCRSSQSLLHSNGNTYLHWYLQKPGQSPKLLIYKVSNRFSGVPDRFSGSGSGTDFTLKISRVEAEDLGVYFCSQSTHVPYTFGGGTKLEIK
3.6	–	–	0.09	0.09	1.4e-05	153000	0.73	5.22e-05	71100	–	–	–	anti-CD39 monoclonal antibody 5-71A (antibody, V domains shown, purified mouse hybridoma antibody, IgG2a isotype; also called R21-5-71A; R29-5-71A) VH: DVQLVESGGGLVQPGGSRKLSCAASGFTFSSFGMHWVRQAPEKGLELVAYISSGSTIRYYSDTVKGRFTISRDNPKNTLFLQMTSLRSEDTAMYYCARFLYEGFRYGMDYWGQGTSVTVSS VL: DVLMTQTPLSLPVSLGDQASISCRSSQSIVHSNGNTYLEWYLQKPGQSPKLLIYKVSNRFSGVPDRFSGSGSGTDFTLKISRVEAEDLGIYYCFQGSHVPNTFGGGTKLEIK
